T1: PUF4 RNA-binding domain (Saccharomyces cerevisiae, UniProt P25339 537-888)
T1 sequence: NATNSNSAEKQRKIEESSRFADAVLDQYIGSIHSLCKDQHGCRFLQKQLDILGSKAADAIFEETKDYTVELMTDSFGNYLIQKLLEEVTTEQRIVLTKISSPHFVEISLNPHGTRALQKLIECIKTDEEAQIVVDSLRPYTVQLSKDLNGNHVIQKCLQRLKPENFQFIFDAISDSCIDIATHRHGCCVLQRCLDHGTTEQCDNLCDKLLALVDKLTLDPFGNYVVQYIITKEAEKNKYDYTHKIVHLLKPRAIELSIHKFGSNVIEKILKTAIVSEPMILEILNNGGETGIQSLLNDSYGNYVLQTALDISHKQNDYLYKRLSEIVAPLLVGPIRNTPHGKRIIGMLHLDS

B1: Ic_S1_P4E.1_K4.1_C4.1_H4.1_A4.1_[T5A]_[A6C]_[T7C]_F4.1_[A9C]_T4.1 (ssRNA)
RNA: UCUCUUUGUAACCUCUCUCUU
B2: Ic_S1_P4E.1_K4.1_C4.1_H4.1_A4.1_[T5A]_[A6C]_[T7C]_F4.1_[A9G]_T4.1 (ssRNA)
RNA: UCUCUUUGUAACCUGUCUCUU
B3: Ic_S1_P4E.1_K4.1_C4.1_H4.1_A4.1_[T5A]_[A6C]_[T7A]_F4.1_[T8G]_[A9T]_T4.1 (ssRNA)
RNA: UCUCUUUGUAACAGUUCUCUU
B4: Ib_S1_P3E.1_K3.1_C3.1_H3.1_[T3C]_A3.1_F3.1_[A8G]_T3.1 (ssRNA)
RNA: UCUCUUUGCAUAUGUCUCUU
B5: Ic_S1_P4E.1_K4.1_C4.1_H4.1_A4.1_[T5A]_[A6T]_[T7C]_F4.1_[A9C]_T4.1 (ssRNA)
RNA: UCUCUUUGUAAUCUCUCUCUU
B6: Ic_S1_P4E.1_K4.1_C4.1_H4.1_A4.1_[T5A]_[A6C]_[T7A]_F4.1_T4.1 (ssRNA)
RNA: UCUCUUUGUAACAUAUCUCUU
B7: Ic_S1_P4E.1_K4.1_C4.1_H4.1_A4.1_[T5A]_[A6C]_[T7A]_F4.1_[A9G]_T4.1 (ssRNA)
RNA: UCUCUUUGUAACAUGUCUCUU
B8: Ic_S1_P4E.1_K4.1_C4.1_H4.1_A4.1_[T5A]_[A6C]_F4.1_[T8G]_T4.1 (ssRNA)
RNA: UCUCUUUGUAACUGAUCUCUU
B9: Ic_S1_P4E.1_K4.1_C4.1_H4.1_A4.1_[T5A]_[A6T]_[T7C]_F4.1_[T8G]_T4.1 (ssRNA)
RNA: UCUCUUUGUAAUCGAUCUCUU
B10: Ic_S1_P4E.1_K4.1_C4.1_H4.1_A4.1_[T5A]_[A6C]_F4.1_[A9C]_T4.1 (ssRNA)
RNA: UCUCUUUGUAACUUCUCUCUU
B11: Ic_S1_P4E.1_K4.1_C4.1_H4.1_A4.1_[T5A]_[A6C]_F4.1_[T8A]_[A9T]_T4.1 (ssRNA)
RNA: UCUCUUUGUAACUAUUCUCUU
B12: Ic_S1_P4E.1_K4.1_C4.1_H4.1_A4.1_[T5A]_[A6C]_[T7A]_F4.1_[T8C]_T4.1 (ssRNA)
RNA: UCUCUUUGUAACACAUCUCUU
B13: Ic_S1_P4E.1_K4.1_C4.1_H4.1_A4.1_[T5A]_[A6C]_F4.1_[T8A]_[A9C]_T4.1 (ssRNA)
RNA: UCUCUUUGUAACUACUCUCUU
B14: Ic_S1_P4E.1_K4.1_C4.1_H4.1_A4.1_[T5A]_[A6C]_F4.1_[A9G]_T4.1 (ssRNA)
RNA: UCUCUUUGUAACUUGUCUCUU
B15: Ic_S1_P4E.1_K4.1_C4.1_H4.1_A4.1_[T5A]_[A6C]_[T7C]_F4.1_[T8A]_T4.1 (ssRNA)
RNA: UCUCUUUGUAACCAAUCUCUU
B16: Ic_S1_P4E.1_K4.1_C4.1_H4.1_A4.1_[T5A]_[A6C]_F4.1_[T8A]_T4.1 (ssRNA)
RNA: UCUCUUUGUAACUAAUCUCUU
B17: Ic_S1_P4E.1_K4.1_C4.1_H4.1_A4.1_[T5A]_[A6T]_[T7C]_F4.1_[T8C]_[A9C]_T4.1 (ssRNA)
RNA: UCUCUUUGUAAUCCCUCUCUU
B18: Ib_S1_P3E.1_K3.1_C3.1_H3.1_[A4T]_A3.1_F3.1_[A8G]_T3.1 (ssRNA)
RNA: UCUCUUUGUUUAUGUCUCUU
B19: Ib_S1_P3E.1_K3.1_C3.1_H3.1_[A4G]_A3.1_F3.1_[A8G]_T3.1 (ssRNA)
RNA: UCUCUUUGUGUAUGUCUCUU
B20: Ic_S1_P4E.1_K4.1_C4.1_H4.1_A4.1_[T5A]_[A6T]_[T7G]_F4.1_[T8C]_T4.1 (ssRNA)
RNA: UCUCUUUGUAAUGCAUCUCUU
B21: Ic_S1_P4E.1_K4.1_C4.1_H4.1_A4.1_[T5A]_[A6T]_[T7C]_F4.1_[T8A]_[A9T]_T4.1 (ssRNA)
RNA: UCUCUUUGUAAUCAUUCUCUU
B22: Ic_S1_P4E.1_K4.1_C4.1_H4.1_A4.1_[T5A]_[A6C]_F4.1_[T8A]_[A9G]_T4.1 (ssRNA)
RNA: UCUCUUUGUAACUAGUCUCUU
B23: Ic_S1_P4E.1_K4.1_C4.1_H4.1_A4.1_[T5A]_[A6C]_[T7A]_F4.1_[T8A]_[A9C]_T4.1 (ssRNA)
RNA: UCUCUUUGUAACAACUCUCUU
B24: Ic_S1_P4E.1_K4.1_C4.1_H4.1_A4.1_[T5A]_[A6C]_[T7A]_F4.1_[T8A]_[A9G]_T4.1 (ssRNA)
RNA: UCUCUUUGUAACAAGUCUCUU
B25: Ic_S1_P4E.1_K4.1_C4.1_H4.1_A4.1_[T5A]_[A6T]_[T7C]_F4.1_[T8C]_[A9T]_T4.1 (ssRNA)
RNA: UCUCUUUGUAAUCCUUCUCUU
B26: Ic_S1_P4E.1_K4.1_C4.1_H4.1_A4.1_[T5A]_[A6C]_F4.1_[T8C]_T4.1 (ssRNA)
RNA: UCUCUUUGUAACUCAUCUCUU
B27: Ic_S1_P4E.1_K4.1_C4.1_H4.1_A4.1_[T5A]_[A6C]_[T7A]_F4.1_[A9T]_T4.1 (ssRNA)
RNA: UCUCUUUGUAACAUUUCUCUU
B28: Ic_S1_P4E.1_K4.1_C4.1_H4.1_A4.1_[T5A]_[A6T]_[T7G]_F4.1_[T8G]_[A9C]_T4.1 (ssRNA)
RNA: UCUCUUUGUAAUGGCUCUCUU
B29: Ic_S1_P4E.1_K4.1_C4.1_H4.1_A4.1_[T5A]_[A6C]_F4.1_[T8G]_[A9T]_T4.1 (ssRNA)
RNA: UCUCUUUGUAACUGUUCUCUU
B30: Ic_S1_P4E.1_K4.1_C4.1_H4.1_A4.1_[T5A]_[A6C]_[T7A]_F4.1_[T8A]_[A9T]_T4.1 (ssRNA)
RNA: UCUCUUUGUAACAAUUCUCUU
B31: Ic_S1_P4E.1_K4.1_C4.1_H4.1_A4.1_[T5A]_[A6T]_[T7C]_F4.1_[A9G]_T4.1 (ssRNA)
RNA: UCUCUUUGUAAUCUGUCUCUU
B32: Ic_S1_P3E.1_K3.1_C3.1_H3.1_A3.1_[A6C]_F3.1_T3.1 (ssRNA)
RNA: UCUCUUUGUAUCUAUCUCUU
B33: Ic_S1_P4E.1_K4.1_C4.1_H4.1_A4.1_[T5A]_[A6C]_[T7C]_F4.1_[T8C]_[A9C]_T4.1 (ssRNA)
RNA: UCUCUUUGUAACCCCUCUCUU
B34: Ic_S1_P4E.1_K4.1_C4.1_H4.1_A4.1_[T5A]_[A6T]_[T7G]_F4.1_[A9T]_T4.1 (ssRNA)
RNA: UCUCUUUGUAAUGUUUCUCUU
B35: Ic_S1_P4E.1_K4.1_C4.1_H4.1_A4.1_[T5A]_[A6C]_[T7C]_F4.1_[T8A]_[A9G]_T4.1 (ssRNA)
RNA: UCUCUUUGUAACCAGUCUCUU
B36: Ic_S1_P4E.1_K4.1_C4.1_H4.1_A4.1_[T5A]_[A6C]_[T7C]_F4.1_[T8A]_[A9T]_T4.1 (ssRNA)
RNA: UCUCUUUGUAACCAUUCUCUU
B37: Ic_S1_P4E.1_K4.1_C4.1_H4.1_A4.1_[T5A]_[A6T]_[T7G]_F4.1_[T8G]_[A9T]_T4.1 (ssRNA)
RNA: UCUCUUUGUAAUGGUUCUCUU
B38: Ic_S1_P4E.1_K4.1_C4.1_H4.1_A4.1_[T5A]_[A6C]_[T7A]_F4.1_[A9C]_T4.1 (ssRNA)
RNA: UCUCUUUGUAACAUCUCUCUU
B39: Ib_S1_P3E.1_K3.1_C3.1_H3.1_[T3C]_A3.1_F3.1_[A8C]_T3.1 (ssRNA)
RNA: UCUCUUUGCAUAUCUCUCUU
B40: Ic_S1_P4E.1_K4.1_C4.1_H4.1_A4.1_[T5A]_[A6T]_[T7G]_F4.1_[A9G]_T4.1 (ssRNA)
RNA: UCUCUUUGUAAUGUGUCUCUU
B41: Ic_S1_P4E.1_K4.1_C4.1_H4.1_A4.1_[T5A]_[A6C]_F4.1_[A9T]_T4.1 (ssRNA)
RNA: UCUCUUUGUAACUUUUCUCUU
B42: Ic_S1_P4E.1_K4.1_C4.1_H4.1_A4.1_[T5A]_[A6C]_[T7A]_F4.1_[T8A]_T4.1 (ssRNA)
RNA: UCUCUUUGUAACAAAUCUCUU
B43: Ic_S1_P4E.1_K4.1_C4.1_H4.1_A4.1_[T5A]_[A6C]_F4.1_[T8C]_[A9G]_T4.1 (ssRNA)
RNA: UCUCUUUGUAACUCGUCUCUU
B44: Ic_S1_P4E.1_K4.1_C4.1_H4.1_A4.1_[T5A]_[A6T]_[T7G]_F4.1_T4.1 (ssRNA)
RNA: UCUCUUUGUAAUGUAUCUCUU
B45: Ic_S1_P4E.1_K4.1_C4.1_H4.1_A4.1_[T5A]_[A6C]_[T7C]_F4.1_[T8C]_[A9T]_T4.1 (ssRNA)
RNA: UCUCUUUGUAACCCUUCUCUU
B46: Ic_S1_P4E.1_K4.1_C4.1_H4.1_A4.1_[T5A]_[A6C]_F4.1_[T8G]_[A9C]_T4.1 (ssRNA)
RNA: UCUCUUUGUAACUGCUCUCUU
B47: Ic_S1_P4E.1_K4.1_C4.1_H4.1_A4.1_[T5A]_[A6C]_[T7A]_F4.1_[T8G]_[A9C]_T4.1 (ssRNA)
RNA: UCUCUUUGUAACAGCUCUCUU
B48: Ic_S1_P4E.1_K4.1_C4.1_H4.1_A4.1_[T5A]_[A6T]_[T7G]_F4.1_[A9C]_T4.1 (ssRNA)
RNA: UCUCUUUGUAAUGUCUCUCUU
B49: Ic_S1_P4E.1_K4.1_C4.1_H4.1_A4.1_[T5A]_[A6C]_F4.1_[T8G]_[A9G]_T4.1 (ssRNA)
RNA: UCUCUUUGUAACUGGUCUCUU
B50: Ic_S1_P4E.1_K4.1_C4.1_H4.1_A4.1_[T5A]_[A6T]_[T7C]_F4.1_[T8G]_[A9C]_T4.1 (ssRNA)
RNA: UCUCUUUGUAAUCGCUCUCUU
B51: Ib_S1_P3E.1_K3.1_C3.1_H3.1_[A4G]_A3.1_F3.1_[A8C]_T3.1 (ssRNA)
RNA: UCUCUUUGUGUAUCUCUCUU

Biological target: T1, PUF4 RNA-binding domain
Test: Mg; RNA-MaP; 20 mM Na-HEPES pH 7.4, 30 mM KOAc, 0.75 mM MgCl2, 0.1% Tween-20, 5% glycerol, 0.1 mg/mL BSA, 2 mM DTT; 25 C; 0.0125-409.6 nM protein
Conditions: tags: N-His6-TEV cleaved; C-SNAP kept, Cy3B-labelled; label: tethered on chip by stalled RNA polymerase

Binder	Kd [nM]
B1	90
B2	61
B3	362
B4	> 2300
B5	74.6
B6	1.55
B7	12
B8	674
B9	1160
B10	113
B11	93.1
B12	209
B13	422
B14	62.5
B15	863
B16	173
B17	1070
B18	1460
B19	494
B20	642
B21	413
B22	104
B23	580
B24	1670
B25	484
B26	374

Binder	Kd [nM]
B27	13.9
B28	2140
B29	360
B30	102
B31	76.5
B32	48.6
B33	1700
B34	95.2
B35	> 2300
B36	548
B37	764
B38	24.5
B39	> 2300
B40	105
B41	58.3
B42	111
B43	726
B44	11.2
B45	727
B46	704
B47	1150
B48	476
B49	937
B50	1820
B51	63.7
